Article PMC2172734

Biological target: Abi1, endogenous in mouse fibroblasts (mouse (endogenous in MEFs)) (UniProt Q8CBW3)
Experiment: co-IP

Chain of UniProt Q8CBW3 (Q8CBW3 whole entry): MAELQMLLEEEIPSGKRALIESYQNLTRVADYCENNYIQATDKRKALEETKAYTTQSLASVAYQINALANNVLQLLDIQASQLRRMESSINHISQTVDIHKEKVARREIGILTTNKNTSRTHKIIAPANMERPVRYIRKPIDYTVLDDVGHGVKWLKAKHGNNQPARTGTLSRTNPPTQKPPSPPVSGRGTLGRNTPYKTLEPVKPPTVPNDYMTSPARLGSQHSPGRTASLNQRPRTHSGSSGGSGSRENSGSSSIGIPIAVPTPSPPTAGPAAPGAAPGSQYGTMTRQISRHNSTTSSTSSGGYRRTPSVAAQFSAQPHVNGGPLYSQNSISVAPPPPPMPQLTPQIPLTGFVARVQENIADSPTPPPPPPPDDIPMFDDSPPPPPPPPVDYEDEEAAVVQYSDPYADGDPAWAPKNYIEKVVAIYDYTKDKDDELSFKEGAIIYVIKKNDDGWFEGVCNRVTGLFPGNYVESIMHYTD

percent of total p85 associated with Abi1 immunoprecipitates: 1%
Substance: p85 (regulatory subunit of class I PI3K), endogenous in mouse fibroblasts (from UniProt P26450 1-724) (natural protein)
